Experimental findings from patent US20250154240A1 (CHIOME BIOSCIENCE, published 2025) are described below.

For this experiment, the target named is T1, human CXCL1 protein (human, UniProt P09341 35-107).
T1 construct: also called HuCXCL1
T1 sequence: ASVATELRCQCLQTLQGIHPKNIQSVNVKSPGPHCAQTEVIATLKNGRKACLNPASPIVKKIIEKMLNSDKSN
The experiment is described as follows: antigen-immobilized ELISA.

B1: mh4A-2F7 VH/VL2 (antibody, V domains shown)
VH: QVTLKESGPGILKPSQTLSLTCSFSGFSLSTSGMGVDWIRQPSGKGLEWLAHIWWDDDKYYNPSLKSQLTISKDTSRNQVFLKITSVDTADTATYYCARSYGYDMDYYAMDYWGQGTSVTVSS
VL: DIQMTQSPSSLSASLGERVSLTCRASQEISGYLSWLQQKPDGTIKRLIYAASTLESGVPKRFSGSRSGSDYSLTISSLESEDFADYYCLQYASYPPWTFGGGTKLEIK
Consider B1, for which the binding result is “binds”.

B2: mh4A-2F7 VH/VL3 (antibody, V domains shown)
VH: QVTLKESGPGILKPSQTLSLTCSFSGFSLSTSGMGVDWIRQPSGKGLEWLAHIWWDDDKYYNPSLKSQLTISKDTSRNQVFLKITSVDTADTATYYCARSYGYDMDYYAMDYWGQGTSVTVSS
VL: DIQMTQSPSSLSASLGERVSLTCRASQEISGYLSWLQQKPDGTIKRLIYAASTLDAGVPKRFSGSRSGSDYSLTISSLESEDFADYYCLQYASYPPWTFGGGTKLEIK
With B2, the binding result was “binds”.

B3: 028-8-12 VH1/VL (antibody, V domains shown)
VH: EVQLLESGGGLVQPGGSLRLSCAASGFTFSELSMSWVRQAPGKGLEWVSAISGSGGSTYYASSVKGRFTISRDNSKNTLYLQMNSLRAEDTAVYYCAREGGRLEPYYYYYAMDVWGQGTPVTVSS
VL: DIQMTQSPSSLSASVGDRVTITCRASQSISDNLHWYQQKPGKAPKLLIYDASNLESGVPSRFSGSGSGTDFTLTINSLQPEDFATYYCQQYYSTPLTFGQGTKLEIK
notes: Amino acid-modified human antibody
B3: the binding result was “binds”.

B4: 028-8-12 VH/VL1 (antibody, V domains shown)
VH: EVQLLESGGGLVQPGGSLRLSCAASGFTFSELSMSWVRQAPGKGLEWVSAISGSGGSTYYADSVKGRFTISRDNSKNTLYLQMNSLRAEDTAVYYCAREGGRLEPYYYYYAMDVWGQGTPVTVSS
VL: DIQMTQSPSSLSASVGDRVTITCRASQSISDNLHWYQQKPGKAPKLLIYDASNLESGVPSRFSGSGSGTDFTLTISSLQPEDFATYYCQQYYSTPLTFGQGTKLEIK
notes: as for B3
For B4, the binding result is “binds”.

B5: 028-8-12 VH2/VL (antibody, V domains shown)
VH: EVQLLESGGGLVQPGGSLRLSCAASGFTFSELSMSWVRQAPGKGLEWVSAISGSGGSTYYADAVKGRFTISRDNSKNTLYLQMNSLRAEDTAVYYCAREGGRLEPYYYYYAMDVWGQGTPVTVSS
VL: DIQMTQSPSSLSASVGDRVTITCRASQSISDNLHWYQQKPGKAPKLLIYDASNLESGVPSRFSGSGSGTDFTLTINSLQPEDFATYYCQQYYSTPLTFGQGTKLEIK
notes: as for B3
Regarding B5, the binding result is “binds”.

B6: 028-8-12 VH2/VL1 (antibody, V domains shown)
VH: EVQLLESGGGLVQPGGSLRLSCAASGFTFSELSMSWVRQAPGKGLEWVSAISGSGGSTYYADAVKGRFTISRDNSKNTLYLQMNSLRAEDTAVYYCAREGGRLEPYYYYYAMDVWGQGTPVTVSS
VL: DIQMTQSPSSLSASVGDRVTITCRASQSISDNLHWYQQKPGKAPKLLIYDASNLESGVPSRFSGSGSGTDFTLTISSLQPEDFATYYCQQYYSTPLTFGQGTKLEIK
notes: as for B3
On to B6, for which the binding result is given as “binds”.

B7: mh5A-5E11 VH1/VL (antibody, V domains shown)
VH: QVQLQQSGAELVRPGSSVKISCKASGYAFSDYWMNWVKQRPGQGLEWIGQIYPGSGDTNYNGKFKGKGTLTADKSSSTAYMQLNSLTSEDSAVYFCARERDYDVAMDYWGQGTSVTVSS
VL: DIQMTQSPSSLSASLGGKVTITCKASQDINKYIAWFQHKPGKGPRLVIHYTSILQPGIPSRFSGVGSGRDYSFSIRNLEPEDIATYYCLQYDNLPWTFGGGTKLEIK
With B7, the binding result is “binds”.

B8: mh5A-5E11 VH3/VL (antibody, V domains shown)
VH: QVQLQQSGAELVRPGSSVKISCKASGYAFSDYWMNWVKQRPGQGLEWIGQIYPGDADTNYNGKFKGKGTLTADKSSSTAYMQLNSLTSEDSAVYFCARERDYDVAMDYWGQGTSVTVSS
VL: DIQMTQSPSSLSASLGGKVTITCKASQDINKYIAWFQHKPGKGPRLVIHYTSILQPGIPSRFSGVGSGRDYSFSIRNLEPEDIATYYCLQYDNLPWTFGGGTKLEIK
In the case of B8, the binding result is “binds”.

B9: mh5A-5E11 VH8/VL (antibody, V domains shown)
VH: QVQLQQSGAELVRPGSSVKISCKASGYAFSDYWMNWVKQRPGQGLEWIGQIYPGEGDTNYSGKFKGKGTLTADKSSSTAYMQLNSLTSEDSAVYFCARERDYDVAMDYWGQGTSVTVSS
VL: DIQMTQSPSSLSASLGGKVTITCKASQDINKYIAWFQHKPGKGPRLVIHYTSILQPGIPSRFSGVGSGRDYSFSIRNLEPEDIATYYCLQYDNLPWTFGGGTKLEIK
Consider B9, for which the binding result is on record as “binds”.

B10: mh5A-5E11 VH9/VL (antibody, V domains shown)
VH: QVQLQQSGAELVRPGSSVKISCKASGYAFSDYWMNWVKQRPGQGLEWIGQIYPGEGDTNYNAKFKGKGTLTADKSSSTAYMQLNSLTSEDSAVYFCARERDYDVAMDYWGQGTSVTVSS
VL: DIQMTQSPSSLSASLGGKVTITCKASQDINKYIAWFQHKPGKGPRLVIHYTSILQPGIPSRFSGVGSGRDYSFSIRNLEPEDIATYYCLQYDNLPWTFGGGTKLEIK
Consider B10, for which the binding result was “binds”.

B11: mh5A-5E11 VH2/VL (antibody, V domains shown)
VH: QVQLQQSGAELVRPGSSVKISCKASGYAFSDYWMNWVKQRPGQGLEWIGQIYPGEGDTNYNGKFKGKGTLTADKSSSTAYMQLNSLTSEDSAVYFCARERDYDVAMDYWGQGTSVTVSS
VL: DIQMTQSPSSLSASLGGKVTITCKASQDINKYIAWFQHKPGKGPRLVIHYTSILQPGIPSRFSGVGSGRDYSFSIRNLEPEDIATYYCLQYDNLPWTFGGGTKLEIK
Take B11: the binding result is given as “binds”.

B12: mh5A-5E11 VH4/VL (antibody, V domains shown)
VH: QVQLQQSGAELVRPGSSVKISCKASGYAFSDYWMNWVKQRPGQGLEWIGQIYPGDGDTNYSGKFKGKGTLTADKSSSTAYMQLNSLTSEDSAVYFCARERDYDVAMDYWGQGTSVTVSS
VL: DIQMTQSPSSLSASLGGKVTITCKASQDINKYIAWFQHKPGKGPRLVIHYTSILQPGIPSRFSGVGSGRDYSFSIRNLEPEDIATYYCLQYDNLPWTFGGGTKLEIK
With B12, the binding result is given as “binds”.

B13: mh5A-5E11 VH6/VL (antibody, V domains shown)
VH: QVQLQQSGAELVRPGSSVKISCKASGYAFSDYWMNWVKQRPGQGLEWIGQIYPGSGDTNYSGKFKGKGTLTADKSSSTAYMQLNSLTSEDSAVYFCARERDYDVAMDYWGQGTSVTVSS
VL: DIQMTQSPSSLSASLGGKVTITCKASQDINKYIAWFQHKPGKGPRLVIHYTSILQPGIPSRFSGVGSGRDYSFSIRNLEPEDIATYYCLQYDNLPWTFGGGTKLEIK
For the molecule B13, the binding result is on record as “binds”.

B14: mh5A-5E11 VH5/VL (antibody, V domains shown)
VH: QVQLQQSGAELVRPGSSVKISCKASGYAFSDYWMNWVKQRPGQGLEWIGQIYPGDGDTNYNAKFKGKGTLTADKSSSTAYMQLNSLTSEDSAVYFCARERDYDVAMDYWGQGTSVTVSS
VL: DIQMTQSPSSLSASLGGKVTITCKASQDINKYIAWFQHKPGKGPRLVIHYTSILQPGIPSRFSGVGSGRDYSFSIRNLEPEDIATYYCLQYDNLPWTFGGGTKLEIK
For B14, the binding result is “binds”.

B15: mh5A-5E11 VH11/VL (antibody, V domains shown)
VH: QVQLQQSGAELVRPGSSVKISCKASGYAFSDYWMNWVKQRPGQGLEWIGQIYPGDADTNYNAKFKGKGTLTADKSSSTAYMQLNSLTSEDSAVYFCARERDYDVAMDYWGQGTSVTVSS
VL: DIQMTQSPSSLSASLGGKVTITCKASQDINKYIAWFQHKPGKGPRLVIHYTSILQPGIPSRFSGVGSGRDYSFSIRNLEPEDIATYYCLQYDNLPWTFGGGTKLEIK
Turning to B15, the binding result is listed as “binds”.

B16: mh5A-5E11 VH10/VL (antibody, V domains shown)
VH: QVQLQQSGAELVRPGSSVKISCKASGYAFSDYWMNWVKQRPGQGLEWIGQIYPGDADTNYSGKFKGKGTLTADKSSSTAYMQLNSLTSEDSAVYFCARERDYDVAMDYWGQGTSVTVSS
VL: DIQMTQSPSSLSASLGGKVTITCKASQDINKYIAWFQHKPGKGPRLVIHYTSILQPGIPSRFSGVGSGRDYSFSIRNLEPEDIATYYCLQYDNLPWTFGGGTKLEIK
B16: the binding result was “binds”.
